B1: OR4K15 (parent)
chain: GUUAACGGUCAUAGGCCAUGGAAACUAGGAGCACCAUUUCGCUGCCAGUGAAGAAAUGAACAAAGAAAAUCUGGGCCAGGCAGGCAUCAAAAGAAAUAGUCUUGCGCUCAACCAGAAAGUCUGUAAUCAUUUUAAGGGUA

Variants of: B1
Experiment: self-cleavage, relative activity (ratio to wild type); higher = more cleavage; in vitro, sequencing; the parent is a self-cleaving ribozyme

Point of comparison: U49G U132C, self-cleavage 1.1. Against it:
- U9A A90G — higher, 1.23
- U57A G123C — higher, 1.58
- A94G U108G — lower, 0.07
- C35U C71U — lower, 0.22
- A18G A52G — higher, 1.67
- U37C G74A — lower, 0.31
- A56G A95G — higher, 1.69
- U19C A129U — higher, 1.39
- U2G U39A — lower, 0.87
- A59G U120A — higher, 1.23
- A36G U57G — lower, 0.68
- A13U A52G — higher, 1.18
- A13U A82G — lower, 0.84
- G106A A140U — lower, 0.05
- G44U A64G — higher, 1.19
- A22G A54C — higher, 1.7
- C42U A95G — higher, 2.84
- A55G A111G — lower, 0.03
- A23U U130C — lower, 0.7
- A89U A91G — higher, 1.78
- A62G C88G — higher, 1.14
- A92G A96G — lower, 0.99
- A52G U97C — lower, 1.07
- A13G A96U — higher, 1.14
- U37A C61U — lower, 0.86
- A86U A129G — higher, 2.26
- A13U A98U — higher, 2.18
- A55G A94C — higher, 1.34
- U39C A60U — higher, 1.88
- G14A U26A — higher, 1.2
- G14A A56G — the same, 1.1
- A11G U122C — lower, 1
- C17U A110U — higher, 1.55
- U9C C88U — higher, 1.34
- C113A U120C — lower, 0.02
- A69G A114U — lower, 0.1
- C16G A78G — lower, 0.55
- A27G U122A — higher, 1.47
- A51U A54G — higher, 1.36
- U2A A116G — lower, 0.75
- U2C A90G — lower, 0.54
- C17U A117G — higher, 1.84
- G31U A54G — higher, 1.34
- C10U U39C — lower, 1.02
- U57C A111G — lower, 0.01
- U43C U97G — higher, 1.6
- G20A A91U — higher, 2.07
- U103C U131C — lower, 0.49
- A59U U72C — lower, 0.17
- U97C U132A — higher, 1.28
- A59U A62C — higher, 1.11
- A33G G138A — lower, 0.65
- C40U A59G — higher, 2.06
- C112A A125G — lower, 0.01
- A62G A92G — higher, 1.22
- A63G A82G — lower, 0.74
- U9C A51G — higher, 1.27
- A68U G75C — lower, 0.22
- G119A A126G — higher, 1.98
- A82G A117C — lower, 0.06
- C10U U132C — higher, 1.26
- A24U U132C — higher, 2.18
- U12C A114G — lower, 0.19
- U39C A140G — higher, 1.57
- U12G — higher, 1.33
- A22U U132A — higher, 1.7
- G14U A94G — higher, 1.84
- A51U U130C — higher, 1.62
- U19A A78G — lower, 0.31
- A27G A51G — higher, 1.3
- G21A A78U — lower, 0.86
- U43C U102A — lower, 1
- U72C G106A — lower, 0.02
- A33U U49G — higher, 2.25
- C40G G74A — lower, 0.29
- C17U A62G — lower, 0.91
- U49G U122C — lower, 0.39
- A36G A82G — lower, 0.53
- U43A A95G — lower, 0.92
- A114C A117G — lower, 0.05
- A5U A110G — lower, 0.29
- A5G A110G — lower, 0.15
- A60U A94G — higher, 1.5
- A60U C128U — lower, 0.44
- U26C A67G — higher, 1.81
- G41U A52G — higher, 1.47
- A5C A33G — lower, 0.87
- U19C A98G — lower, 0.25
- U26A U100A — lower, 0.98
- A86G A118G — higher, 1.45
- G58A A111G — lower, 0
- C109A U120C — lower, 0.36
- A23G U49C — lower, 0.9
- G15C U43C — higher, 1.93
- A56G A114G — lower, 0.31
- U19C U49C — higher, 1.6
- A92G A116U — lower, 0.2
- A11G C113G — lower, 0.04
- G28A A114G — lower, 0.35
- U122C A125C — lower, 0.72
- U39C U49A — higher, 1.41
- A27U U39C — lower, 0.93
- A64C U70C — higher, 1.18
- G8A — higher, 1.61
- G79U A129G — lower, 0.04
- A24U G123A — higher, 1.3
- A66C U132C — higher, 1.6
- G1U U139C — lower, 0.98
- C45A G99A — lower, 0.92
- C46U A51U — lower, 0.64
- U26G A96G — higher, 1.78
- A62C A94G — higher, 1.61
- A27U A64U — higher, 2.21
- A22U A51G — higher, 1.63
- A27C A33U — higher, 2.06
- U2C A11G — higher, 1.16
- A51G — higher, 1.36
- A22U A63U — higher, 2.2
- A18C A23G — lower, 0.81
- U9A A67U — lower, 0.67
- G83A U120C — higher, 1.74
- A111U A125G — lower, 0.01
- U19G A33G — lower, 0.96
- A69G A116G — lower, 0.56
- A23G G80U — lower, 0.23
- A13U A96G — higher, 1.14
- A60C G123A — higher, 1.98
- G123U U130C — lower, 0.44
- C35U A62G — lower, 0.56
- A86G — higher, 1.16
- U43C A116G — lower, 0.53
- A96U A135C — higher, 1.11
- C25U G136A — higher, 1.84
- C42A A69G — higher, 1.88
- A67G G136A — higher, 1.63
- G50A U108A — lower, 0.01
- G79U G99A — lower, 0.03
- A22G A110C — lower, 0.3
- G48A A110G — lower, 0.12
- A11G A60U — lower, 1.02
- A91G G119U — lower, 0.81
- A23U U49C — higher, 1.55
- A90U — higher, 1.96
- A82C C109U — lower, 0.07
- A36G A98C — higher, 2.03
- A62G A135U — higher, 1.67
- A82U A117U — lower, 0.23
- U72C A78C — lower, 0.27
- U2A A64G — higher, 1.24
- A5G A90G — higher, 1.11
- G75A U122A — lower, 0.17
- A24C U37C — higher, 1.29
- A13G A60G — higher, 1.33
- C40U A116G — higher, 1.57
- U39A A94C — higher, 1.87
- U72G U102A — lower, 0.11
- C45U A68C — higher, 1.95
- A66G A86C — higher, 1.45
- A52G G138U — higher, 2.54
- A4G A118G — lower, 1.01
- A11G A135U — lower, 0.99
- A5G — lower, 0.92
- U39C A92G — higher, 1.3
- A62C A69G — lower, 0.62
- G1U A94G — lower, 0.76
- A111G U139G — lower, 0.02
